Reference: PMC9929037

Biological target: nLUC-TaPYL-1D (Triticum aestivum (bread wheat))
Test: split reporter (BiFC, NanoBiT); LCI of cLUC-TaPP2C-7A with nLUC-TaPYL-1D in N. benthamiana leaves with a third protein co-expressed (TN1-GFP, tn1-GFP or GFP empty vector); relative luminescence, GFP EV combination set to 1

percent decrease of LUC intensity of cLUC-TaPP2C-7A/nLUC-TaPYL-1D against the GFP EV samples: > 50%
Substance: TN1-GFP (natural protein)
